Experimental data published in patent US12679878B2, “CRF2 receptor agonists and their use in therapy” (SANOFI, priority 2020, dated 2026).
Starred links: 1 amine or outer side, 2 acyl side, 3 side chain; linkers in the order of their positions; H or OH if unused. Non-standard residues stand in square brackets, D forms with d. Groups on a side chain read outwards from the residue. No end group written: not given here. *: point of attachment. C18 diacid = O=C(O)CCCCCCCCCCCCCCCCC(=O)*; γGlu = O=C(O)[C@H](CCC(=O)[*:2])N[*:1]; AEEA = NCCOCCOCC(=O)O; Aib = CC(C)(N)C(=O)O

B1: SEQ ID NO: 98 (peptide)
peptide: IVLSLDVPIKLK([AEEA-AEEA-γGlu-C18 diacid])QKLLKQERQKK[Aib]REQAETNKQILAQV-NH2
modifications: N-terminus assumed
SMILES: CC[C@H](C)[C@H](N)C(=O)N[C@H](C(=O)N[C@@H](CC(C)C)C(=O)N[C@@H](CO)C(=O)N[C@@H](CC(C)C)C(=O)N[C@@H](CC(=O)O)C(=O)N[C@H](C(=O)N1CCC[C@H]1C(=O)N[C@H](C(=O)N[C@@H](CCCCN)C(=O)N[C@@H](CC(C)C)C(=O)N[C@@H](CCCCNC(=O)COCCOCCNC(=O)COCCOCCNC(=O)CC[C@H](NC(=O)CCCCCCCCCCCCCCCCC(=O)O)C(=O)O)C(=O)N[C@@H](CCC(N)=O)C(=O)N[C@@H](CCCCN)C(=O)N[C@@H](CC(C)C)C(=O)N[C@@H](CC(C)C)C(=O)N[C@@H](CCCCN)C(=O)N[C@@H](CCC(N)=O)C(=O)N[C@@H](CCC(=O)O)C(=O)N[C@@H](CCCNC(=N)N)C(=O)N[C@@H](CCC(N)=O)C(=O)N[C@@H](CCCCN)C(=O)N[C@@H](CCCCN)C(=O)NC(C)(C)C(=O)N[C@@H](CCCNC(=N)N)C(=O)N[C@@H](CCC(=O)O)C(=O)N[C@@H](CCC(N)=O)C(=O)N[C@@H](C)C(=O)N[C@@H](CCC(=O)O)C(=O)N[C@H](C(=O)N[C@@H](CC(N)=O)C(=O)N[C@@H](CCCCN)C(=O)N[C@@H](CCC(N)=O)C(=O)N[C@H](C(=O)N[C@@H](CC(C)C)C(=O)N[C@@H](C)C(=O)N[C@@H](CCC(N)=O)C(=O)N[C@H](C(N)=O)C(C)C)[C@@H](C)CC)[C@@H](C)O)[C@@H](C)CC)C(C)C)C(C)C
B2: SEQ ID NO: 99 (peptide)
peptide: IVLSLDVPIKLK([AEEA-AEEA-γGlu-C18 diacid])KILLKQERQKK[Aib]REQAEKNKQILAQV-NH2
modifications: N-terminus assumed
SMILES: CC[C@H](C)[C@H](N)C(=O)N[C@H](C(=O)N[C@@H](CC(C)C)C(=O)N[C@@H](CO)C(=O)N[C@@H](CC(C)C)C(=O)N[C@@H](CC(=O)O)C(=O)N[C@H](C(=O)N1CCC[C@H]1C(=O)N[C@H](C(=O)N[C@@H](CCCCN)C(=O)N[C@@H](CC(C)C)C(=O)N[C@@H](CCCCNC(=O)COCCOCCNC(=O)COCCOCCNC(=O)CC[C@H](NC(=O)CCCCCCCCCCCCCCCCC(=O)O)C(=O)O)C(=O)N[C@@H](CCCCN)C(=O)N[C@H](C(=O)N[C@@H](CC(C)C)C(=O)N[C@@H](CC(C)C)C(=O)N[C@@H](CCCCN)C(=O)N[C@@H](CCC(N)=O)C(=O)N[C@@H](CCC(=O)O)C(=O)N[C@@H](CCCNC(=N)N)C(=O)N[C@@H](CCC(N)=O)C(=O)N[C@@H](CCCCN)C(=O)N[C@@H](CCCCN)C(=O)NC(C)(C)C(=O)N[C@@H](CCCNC(=N)N)C(=O)N[C@@H](CCC(=O)O)C(=O)N[C@@H](CCC(N)=O)C(=O)N[C@@H](C)C(=O)N[C@@H](CCC(=O)O)C(=O)N[C@@H](CCCCN)C(=O)N[C@@H](CC(N)=O)C(=O)N[C@@H](CCCCN)C(=O)N[C@@H](CCC(N)=O)C(=O)N[C@H](C(=O)N[C@@H](CC(C)C)C(=O)N[C@@H](C)C(=O)N[C@@H](CCC(N)=O)C(=O)N[C@H](C(N)=O)C(C)C)[C@@H](C)CC)[C@@H](C)CC)[C@@H](C)CC)C(C)C)C(C)C
B3: SEQ ID NO: 100 (peptide)
peptide: IVLSLDVPIKLK([AEEA-AEEA-γGlu-C18 diacid])KILLKQERQKK[Aib]REQAETN[Aib]QILAQV-NH2
modifications: N-terminus assumed
SMILES: CC[C@H](C)[C@H](N)C(=O)N[C@H](C(=O)N[C@@H](CC(C)C)C(=O)N[C@@H](CO)C(=O)N[C@@H](CC(C)C)C(=O)N[C@@H](CC(=O)O)C(=O)N[C@H](C(=O)N1CCC[C@H]1C(=O)N[C@H](C(=O)N[C@@H](CCCCN)C(=O)N[C@@H](CC(C)C)C(=O)N[C@@H](CCCCNC(=O)COCCOCCNC(=O)COCCOCCNC(=O)CC[C@H](NC(=O)CCCCCCCCCCCCCCCCC(=O)O)C(=O)O)C(=O)N[C@@H](CCCCN)C(=O)N[C@H](C(=O)N[C@@H](CC(C)C)C(=O)N[C@@H](CC(C)C)C(=O)N[C@@H](CCCCN)C(=O)N[C@@H](CCC(N)=O)C(=O)N[C@@H](CCC(=O)O)C(=O)N[C@@H](CCCNC(=N)N)C(=O)N[C@@H](CCC(N)=O)C(=O)N[C@@H](CCCCN)C(=O)N[C@@H](CCCCN)C(=O)NC(C)(C)C(=O)N[C@@H](CCCNC(=N)N)C(=O)N[C@@H](CCC(=O)O)C(=O)N[C@@H](CCC(N)=O)C(=O)N[C@@H](C)C(=O)N[C@@H](CCC(=O)O)C(=O)N[C@H](C(=O)N[C@@H](CC(N)=O)C(=O)NC(C)(C)C(=O)N[C@@H](CCC(N)=O)C(=O)N[C@H](C(=O)N[C@@H](CC(C)C)C(=O)N[C@@H](C)C(=O)N[C@@H](CCC(N)=O)C(=O)N[C@H](C(N)=O)C(C)C)[C@@H](C)CC)[C@@H](C)O)[C@@H](C)CC)[C@@H](C)CC)C(C)C)C(C)C
B4: SEQ ID NO: 101 (peptide)
peptide: IVLSLDVPIKLK([AEEA-AEEA-γGlu-C18 diacid])KILLKQERQKK[Aib]REQAETNKQILERV-NH2
modifications: N-terminus assumed
SMILES: CC[C@H](C)[C@H](N)C(=O)N[C@H](C(=O)N[C@@H](CC(C)C)C(=O)N[C@@H](CO)C(=O)N[C@@H](CC(C)C)C(=O)N[C@@H](CC(=O)O)C(=O)N[C@H](C(=O)N1CCC[C@H]1C(=O)N[C@H](C(=O)N[C@@H](CCCCN)C(=O)N[C@@H](CC(C)C)C(=O)N[C@@H](CCCCNC(=O)COCCOCCNC(=O)COCCOCCNC(=O)CC[C@H](NC(=O)CCCCCCCCCCCCCCCCC(=O)O)C(=O)O)C(=O)N[C@@H](CCCCN)C(=O)N[C@H](C(=O)N[C@@H](CC(C)C)C(=O)N[C@@H](CC(C)C)C(=O)N[C@@H](CCCCN)C(=O)N[C@@H](CCC(N)=O)C(=O)N[C@@H](CCC(=O)O)C(=O)N[C@@H](CCCNC(=N)N)C(=O)N[C@@H](CCC(N)=O)C(=O)N[C@@H](CCCCN)C(=O)N[C@@H](CCCCN)C(=O)NC(C)(C)C(=O)N[C@@H](CCCNC(=N)N)C(=O)N[C@@H](CCC(=O)O)C(=O)N[C@@H](CCC(N)=O)C(=O)N[C@@H](C)C(=O)N[C@@H](CCC(=O)O)C(=O)N[C@H](C(=O)N[C@@H](CC(N)=O)C(=O)N[C@@H](CCCCN)C(=O)N[C@@H](CCC(N)=O)C(=O)N[C@H](C(=O)N[C@@H](CC(C)C)C(=O)N[C@@H](CCC(=O)O)C(=O)N[C@@H](CCCNC(=N)N)C(=O)N[C@H](C(N)=O)C(C)C)[C@@H](C)CC)[C@@H](C)O)[C@@H](C)CC)[C@@H](C)CC)C(C)C)C(C)C

target: human corticotropin-releasing factor 2α (CRF2 α receptor) (human), Q13324; experiment: cell-based or functional assay
Sequence (Q13324 20-411): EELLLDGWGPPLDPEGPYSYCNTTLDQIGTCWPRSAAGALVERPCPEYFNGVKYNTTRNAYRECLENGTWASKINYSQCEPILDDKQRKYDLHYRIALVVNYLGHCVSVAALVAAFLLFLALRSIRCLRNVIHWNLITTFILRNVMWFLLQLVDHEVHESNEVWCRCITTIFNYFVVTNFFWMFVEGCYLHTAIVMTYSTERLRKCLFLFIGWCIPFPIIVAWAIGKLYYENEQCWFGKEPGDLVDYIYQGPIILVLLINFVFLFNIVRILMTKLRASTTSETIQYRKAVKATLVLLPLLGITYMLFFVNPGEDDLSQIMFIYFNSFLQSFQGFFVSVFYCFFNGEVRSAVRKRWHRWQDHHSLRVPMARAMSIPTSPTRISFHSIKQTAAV

Binder | EC50 [nM], 0% HSA | EC50 [nM], 0.1% HSA
B1 | 2.36 nM | 
B2 | 0.06 nM | 1.6 nM
B3 | 0.51 nM | 20.5 nM
B4 | 0.11 nM | 4.28 nM
